This note sets out measurements from the DeepSol protein solubility set.

A short description of this data set: soluble on expression in E. coli; label from the status in PepcDB or PDB records.
“MGSDKIHHHHHHMNIPNIRLLNQQLLNPLFREPKELVSWMGAMQAQNYSMVKWAVGMRLKSATIQTVEKALREGEILRTHVMRPTWHLVAAEDIRWMLKLSAQRIISANDSFAKGYDLDIPNELYTKAHDLLEKILCGKKSLTKQEIAEHFNRSGIVADNRRMTRFMARAEQEGIICSGEDRGSKCTYALLEERVPPMPELTKDESLARLARSYFRSHSPAVLQDFIWWSGLSVSDAKQAVYLIASELITEQWKEQTWYIHDICRTRGKLSGHIHLLPSYDEYLLGYKDRTDVLPLEHYSKAFTNNGLFFPIVLHNGQVIGNWDKSVKKKSVDLKYSWFRQVADMNEETLERERQKFTRFLEK”: the “soluble on expression in E. coli” value was “not soluble”.

For “MGSDKIHHHHHHMISSSTVHAFYFSAKYSSFSRAAEILETTQPNISGQIIKLEKDLDTILFIRKQGRVSLSKEGEKLYLVAEKIVNSYKEFDSVVEYFFEEEPIVIVTQPRLYTKYVAPYLTDDLINNNLFHIKTGELTAIKSWLDKEDADIVITEGLFDSHSRYINEGVIDVLKFSWAKKVNEQFDSPCPTLVHSKVWDHWHDLSSALNRNKEFKRKLIIDTPDFAERLIESGVGIGLLPNVMISNNANLEVCHGPTRNNVLGPICLYSKKYSQHKNLRSLVNMFKKESSDS”, the “soluble on expression in E. coli” value is “not soluble”.

With “MRRTTRYPVSGESSLWNVYKTVSFWKVMKNFIIIQIARYTPFLSVKNWLYRTFLRMKVGKKTSFALMVMPDIMFPEKITVGDNSIIGYNTTLLAHEYLIREYRLGEIVIGNEVMIGANTTILPGVRIGDGAIVSAGTLVHKDVPSGAFVGGNPMRVIYTKEQMEAREGSY”, the “soluble on expression in E. coli” value is “not soluble”.

For “MTEHSLWRFSRALHRALNDRQTEELATIIDDNIDWAIYGPIDMFPFFGARQGKAAVLEVCRQIADSVRIYRYHRESVMLGIDSAASMVRYSLTAAGTNRPISVRMALFTQFQNGRLTNLRMVLDTFDLVEQALGRPIHLPKIA”, the “soluble on expression in E. coli” value is “soluble”.

As for “MSLDLHLTNKLALITGSTKGIGKAIAIEMAREGTDVIINGRNEAEVTKVVKEIQTMFPDTHPQAGTADISIESQRATLLEKFPKVDILVNNMGIFEPMEYWDIDDATWEKFFTVNVLSGNALAKAYLPKMLAQDFGRIIFIASEEAVMPSGEMPQYSMTKTMNLSLAKSLSNLTVGTHVTVNTVMPGSTLTEGVEKMLEDMYADSDIPKEDWEKDFMKNHRSRSQIQRLIRPEEIGRFVTFVASPDSSSFSGEALRIDGGLVPTIEGHHHHHH”, the “soluble on expression in E. coli” value is listed as “soluble”.

As to “MSLKSAKDVQTITKITIDFGGEEIFLDFDEVTKHYLNQPLSAKTVFALTKELTQVLYNAGYVTSAIGLKSSKIKNGEVEFVVLWGKVNDILVEEQQASLFKDKAMLFVLPNLKGKVLRIYDVDQLIEILNTGNKTAKVNVIAANEKSMSNLSIERHRTSYPQVSLSLNNSGEGSNAEGRNQATLSISWSDLLGTNDRWSFSTGYRIYKDRQANRQQNYSLSYTQPFSFSTLDIKLSYSGYKKQLRGIHTHGSSGETKQASFKLSHTLLRNKDMILSLYGELEFKRRLSYFGDIRIGKYHNNKLNIGLSYVTNLGHGKLYSDLSYSNGLRWFNANHSAYNSHRDKTLRLVSGSINWQRPFVFFNRGMSYQFRLGAQYGFDSLYGENQFSIGDEYTVRGFKGGAGSGDRGFYISQTVTIPFYPQKSYLSYINPFLGIDIGKVHAKRPHHVVDTFAGFAFGVKAQIKSLALSLTYAKPINGVGTFEESNKKSVFYFTGSVSFEGHHHHHH”, the “soluble on expression in E. coli” value is reported as “not soluble”.

For the sequence “MGSDKIHHHHHHMYKWHNVFQPIFQIDQNMNHKVDHYEMLLRDENDQFPNHDFFRIISTEEDNQKWIQIEEKSLKNLFSLHPNIHVNLNVEPIQFAYPSVWEFLRRIYDKYGQKVIIEITERQLQAGNIGNRQFDCAFQRINDIGFKIALDDVDSGSNSFSFVNHHVNQISVIKLSLLIFDNVSSGTTISFIDSWAAFAKEKHLDLVIEAVRSKEIAKRFAGNKHIFQQGYYWEKALKLEDIY”, the “soluble on expression in E. coli” value is given as “not soluble”.

As for “MAGQEFEKLLFYIVTVPFFVRAEPTTGELINPQAGAPFFLATAATTMDYEVEMVITSEAGYLLMRDNAKKVKVRPGVEQTVYDFIKMAKDAGVKIYLCTPSLDLTDIYKEEDVNKEICDGILGGAAFLDKLMSGEYAVITL”, the “soluble on expression in E. coli” value is on record as “not soluble”.

With “MGSDKIHHHHHHMTSAIDKNSQLEAQAWELLEESVIFYQGKPIGTVAAHDPESDALNYDQCFLRDFVPSALVFLMYGKAEIVRNFLVETLKLQSHEKQIDCFEPGAGLMPASFKVHFNGNEEFLVADFGEQAIARVPPIDSCMWWILLLRAYEKATGDLSLARQPDFQAGIKLILDLCLVHRFSMYPTMLVPDGAFMIDRRMGVYEHPLEIQVLFYASLRAASELLLPDGDGDSYLGKVNRRLGSLKYHIRNYYWLDLKRLGEIYRYKDNEFGKEIVNKFNINSESIPSWLTEWLPETGGYLAGNLGPGRIDFRFFALGNLMAILTSLASEKESQSIMNLFVQRWQDLIGYMPVKICFPALEGLEWRIVTGCDSKNRAWSYHNGGNWPVLLWLFASAAQKAGRTELAQAAIAIAERRLLKDKFPEYYDGNNGRLIGKEARINQTWSIAGLLTAKKFVENPDYLELISFAEGLEVPGCSL”, the “soluble on expression in E. coli” value was “not soluble”.

For the sequence “MDREHLIKLACARNPDLEMCEQLKARNVRDSNSGKLEMIEPPPLPPSMKAAKRRDIHAAHDENSEQKPVRYRALSAEEVRILQTKCARVGPLVQKHCQPKKTSARNAGRCAAYFRDCAQFIEKGDPLGAIANSFDSGVNINLANVDVKGIPYYPLNEEGAVGVGVGLGIPFGAWGGGASTSVGVRDYFHGDQEVGANWYDGKYGYKNHWNIPLVQSLGVEGGQHNTVSFPLHGKDAGNLKVDNGYGVGGYYQQNDHVGVNYKEGDVRHTFGVSSPFVGAGFQTGQAVAFPGLDVWERALG”, the “soluble on expression in E. coli” value is on record as “not soluble”.

Consider “MGSDKIHHHHHHLPNLQEIFKKDNFIAWDDKVYPSILNFGAPLPKPLPRIAPNNAPLARLFIEFLYYYSMFNFKENYIGARPVMVMDRRTSQNNMVRSSTNKEVCIQDPFDEHNPGRTVRTLNRIKDVMRSTYQKFLPVEGSEFTFPTLDDIINMSPEVPKPSRAEVRNFRAEATEVNRVGLGVYCRNSFV”, for which the “soluble on expression in E. coli” value is “not soluble”.

With “MNREFVEAMQHLALERGVSVEEILKAFKRALRKAYIKRQKGYKKEEIDQGKGPEVDVYIDPNSGRIEMVKVRRVVEKVEDPDKEIALAEALQYDPEVQVGDEMEFPINPEELSRMAIQDLRQILTQRLKESERNRIYNEYKDKEGQVLTGVVTRVDNRGNVFVELGRGEAYLPRSEQIPTEKYHPGQRIKVYLKKVDKSAKGPSLLVSRAHEKLLEHLLKQEVPEIAEGIVEIKAIAREPGRRSKVAVTSHNPNVDPIGACIGHKGQRIQAVSAELGREKVDIILWSKDPKEFIRNALSPAQVGSIELDPEAKKARVKVTKDQHSLAIGTGGQNVRLASKLTGYDIHFEEAEISDLDEALRRAAEEEAEARERKAREEFEKLFRDLG”, the “soluble on expression in E. coli” value is recorded as “soluble”.

Take “MGSSHHHHHHSSGRENLYFQGMADQDQLKALRLRIDSLDEKLLELISERARCAQDVARVKTQTLGEGEAPVFYRPEREAWVLKHIMQLNKGPLDNEEVARLFREIMSSCLALEQPLKVAYLGPEGTFTQAAALKHFGNAVISTPMAAIDEVFREVAAGAVNFGVVPVENSTEGAVNHTLDSFLEHDMVICGEVELRIHHHLLVGETTKTDNITRIYSHAQSLAQCRKWLDSHYPSVERVAVSSNADAAKRVKSEWNSAAIAGDMAASLYDLSKLHEKIEDRPDNSTRFLIIGNQEVPPTGDDKTSIIVSMRNKPGALHELLVPFHNNGIDLTRIETRPSRSGKWTYVFFIDFVGHHKEPLIKDVLEKIGQEAVALKVLGSYPKAVL”: the “soluble on expression in E. coli” value is listed as “soluble”.

For the sequence “MTIQPPSSSSATEFCQPDESTFLVGFNRVRRYGTTQSQSSPVTPCSYTIYQVQTDDTLERIALKHNCSVSSLVRANKLWSPSALFMKQFIRIPIFNSQQPNLKPSLQETQCKIVPATTERVDSSREEKSMKDILQRIDRNIKSFRKCDNPSSSAYDHI”, the “soluble on expression in E. coli” value is “not soluble”.

“SPLHVSLANGNRDLDYDSVQPYFMCDDEEEDVHHQQPPQPPAPSEDIWKKFELLPTPRPSPGHAGLYSPPCEAVAVSFAPRDHDGDSFSIADLPELPGGDAVKQSFVCDPDDETFVKNIILQDCMWNGFSASAKLVSKLDPYQAVRKEGTGVSLAADVEPATPPDCTCNT”: the “soluble on expression in E. coli” value is listed as “soluble”.

For the sequence “MKWRYGAAAGVESRGPHIRVQTVASQVPRGVCWMARVAVVVKVYPDDVSIDPKTLAERIKSKLPSGYEVLAEGEEPIAFGLKALKLVIAMNEDTEGGTEEVEQLLKNIEGVQEVEVENVSRMQ”, the “soluble on expression in E. coli” value is given as “soluble”.

For the sequence “MTTGGEDSRRTLSPGTMIVIVGPSGAGKDTLMDYAAAQLSGRPGFHFTRRVITRSCDAGGENHDAVSMHEFNQLEDAGAFAVSWQAHGLKYGIPAAVYRHLEAGDVVIANGSRSALPHFGTAFSRLKVVNIVARPDVLARRLEQRGRESRDDILRRLERSSLAVAGDFDVTTVDNSGAIEDAGKTIMQVLQQSAGSSQP”, the “soluble on expression in E. coli” value was “not soluble”.

For the sequence “MNSLDSQITALYTLAHELLYLGSDGSPIYSDHFSRLNGDVLSRANTLYPHHGSTDEEEARLCLSLLMGYNATIYNNGDKEVRIQQILNRCWEVLDRLPASLLKVRLLTYCYG”, the “soluble on expression in E. coli” value was “not soluble”.

As for “MDVLNAANDLLPLLPEVQDALSEDFDGVECSMGAGVVLEQAPFRMAFPHMGRQVTFVPDTSCLEEFDGAKLHRINLGPKSAVFTDGEPGCCMELILGAGKDWKTPLVKLFSRVYPNKWAFFITELESGQATYHILSSSHGMLSSARREDTPDSTEQSSMVSSPTASVSDATNYSLWIVPVTKVFAIPAPKKVKVVRKVIKKRTPVDGSTNGTNGTSVVNGNGTMNGHVSPEDGERKVRLVKKKPPTEKLESSTEREISPLNDLPKPEFSTIASSESMKTVINGKSEREEAGPSNDSSDGGSASELRKKLTEKIMEQKFMVNGEQRALNGNASSRGLGRSISRSSMTPDRRLDPILEDGSKQRQAIASAISVNRPSITRNSATPPMTPHSKLALEMLFKLDKLWKYFKFIYSKCRYTFIQFFNSTFSNTKIYSVEIMDAEVIKVLVSHPSKPNIPVMVLQLVLTKCLNYEHLGRLREVHPHWDEIAGQLLNSGYYKLLERSDKLLMTLQRKVVSDPGLHYATSVLTNIQMHILNPVDIMRAVLDEGVCCFPYGVILDKTFILLDKVEAMLHGSYEEDVHWEPVAKLAKKAASHYRGNLERVMEERMGENLRLKAAQRIIRLESFVVDAQVAKLEKESNKAKEDVRWEIDQLHQKNSQLRKDNREMKANQMRLEARVEALEQKFKTLARLLS”, the “soluble on expression in E. coli” value is “not soluble”.

As to “MLTVIAEIRTRPGQHHRQAVLDQFAKIVPTVLKEEGCHGYAPMVDCAAGVSFQSMAPDSIVMIEQWESIAHLEAHLQTPHMKAYSEAVKGDVLEMNIRILQPGI”, the “soluble on expression in E. coli” value was “soluble”.

With “MSLNIQQQVNEMFSGMINVTSPGAYKTATRGVITGGSVVLRNRISTANLISITPPSAKGGCGGINLYSGSFSFINGEEFVALMRNVASNAAGIVSGFAFELALDAMDAQTGGVIRNLANKIQALNQMFSNSCQLASGLVTNAKKAYEESTDFKSAMTAFGSNVSSDFFTAKSTKEDSPANRIAASGKAVQCENTGNVLWCAMMKSGLQSQILFGSDENAEFIMSMVGSYNVSLTNDASGGKNFAAHPMPKLITGEGLKILVEGSTNLDVKVYQCDQDDPDCSEPNIRTLTSFKGLETRILEDLQNNGILERFANGTATAADGNRIAYLASSRVGVNLMKITQKAGAQSGYDYLNQFAKKIAADASMSLIYQLLGHTEKGLTSLNMADAGKVIEDLRATKGELMDEYRSYIEDAMQGKDADGQAEKMLQMAPVFDSGTLPQGTINDNAGAEGHHHHHH”, the “soluble on expression in E. coli” value was “not soluble”.
